Test results: US20250388666A1 (BRIGHAM AND WOMEN S HOSPITAL, published 2025)
Numbering of substitutions follows the chain as printed. Names and notes keep the numbering of the source. Values joined by “and” are separate entries in the source; they are usually repeats but may differ in a detail not shown here. Identical values can stand only once. Each block holds one binder with its values, some of them ahead of it.

Biological target: T1, CEACAM1 (Sino Biological) (human, UniProt P13688 35-428, limits assumed)
T1 construct: may be the same as CEACAM1-HIS; also called hCEACAM1; biotinylated soluble CEACAM1
T1 sequence: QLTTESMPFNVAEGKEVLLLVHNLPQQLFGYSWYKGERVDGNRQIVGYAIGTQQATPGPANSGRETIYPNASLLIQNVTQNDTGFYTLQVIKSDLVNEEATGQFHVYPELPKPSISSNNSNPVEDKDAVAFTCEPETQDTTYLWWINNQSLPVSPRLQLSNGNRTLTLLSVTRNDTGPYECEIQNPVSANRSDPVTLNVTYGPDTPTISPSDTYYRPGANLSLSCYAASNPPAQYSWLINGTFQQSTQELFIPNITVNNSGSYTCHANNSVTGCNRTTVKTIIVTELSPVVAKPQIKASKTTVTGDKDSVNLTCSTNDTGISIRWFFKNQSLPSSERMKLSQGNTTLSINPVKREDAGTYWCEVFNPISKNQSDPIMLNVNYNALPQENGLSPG
Experiment: SPR single-cycle
Protocol: To assess the binding of the humanized affinity matured IgGs, single cycle kinetics analysis was performed on crude supernatants using a Biacore T200 running Biacore T200 Control Software V2.0.1 and Biacore T200 Evaluation Software V3.0 (Uppsala, Sweden). Antibodies were diluted in HBS-P+ (GE Healthcare) to a final concentration of […]. At the start of each cycle, antibodies were loaded onto Fc2, Fc3 and Fc4 of the Protein A chip (GE Healthcare). IgGs were captured at a flow rate of 10 μl/min to give an immobilization level (RL) of ˜100 RU (a level calculated to obtain an Rmax of ˜50-150 RU once the analyte is bound). The surface was then allowed to stabilize. Single cycle kinetics data was obtained with CEACAM1 as the analyte at a flow rate of […] to minimize any potential mass transfer effects. Multiple repeats with the parent (VH2 N56Q/Vκ4 S27(f)A) antibody were performed to check the stability of the surface and analyte over the kinetic cycles. The signal from the reference channel Fc1 (no antibody) was subtracted from that of Fc2, Fc3 and Fc4 to correct for differences in non-specific binding to the reference surface. A three point, two-fold dilution range from 25 nM to 100 nM CEACAM 1 without regeneration between each concentration was used. The signal from each antibody blank run (no CEACAM1) was subtracted to correct for differences in surface stability. The association phase for the three injections of increasing concentrations of CEACAM1 was monitored for 200 seconds each time and a single dissociation phase was measured for 300 seconds following the last injection of CEACAM1. Regeneration of the Protein A surface was conducted using two injections of 10 mM glycine-HCL pH 1.5 followed by a stabilization period of 240 seconds.

Kd: 372 nM and 159 nM
B3: He13/L17 (antibody, IgG4, V domains shown)
VH: EVQLLESGGGLVQPGGSLRLSCAASGFSFSDYYLYWVRQAPGKGLEWVATISVGGGQTSYADSVKGRFTISRDNSKNTLYLQMNSLRAEDTAMYYCTRGLYYGPSWLAYWGQGTLVTVSS
VL: DIVMTQSPDSLAVSLGERATINCKSSQSLLNSANQKNYLAWYQQKPGQPPKLLIYFASTRESGVPDRFSGSGSGTDFTLTISSLQAEDVAVYYCQSHYPYPYTFGGGTKVEIK
notes: IgG4 S241P, kappa

Kd: 129 nM
fold better than Parent (KD): 1.23 fold
B7: He13/L19 (antibody, IgG4, V domains shown)
VH: B3 VH
VL: B3 VL with Y98I, P99Y, Y100P, P101N, Y102F
notes: IgG4 S241P, kappa

Kd: 109 nM
fold better than Parent (KD): 1.46 fold
B12: He13/L20 (antibody, IgG4, V domains shown)
VH: B3 VH
VL: B3 VL with Y98F, Y102L
notes: IgG4 S241P, kappa

Kd: 103 nM
fold better than Parent (KD): 1.54 fold
B14: He13/L18 (antibody, IgG4, V domains shown)
VH: B3 VH
VL: B3 VL with Y98F, Y102F
notes: IgG4 S241P, kappa

Kd: 91 nM
fold better than Parent (KD): 1.74 fold
B16: He13/Parent VL (antibody, IgG4, V domains shown)
VH: B3 VH
VL: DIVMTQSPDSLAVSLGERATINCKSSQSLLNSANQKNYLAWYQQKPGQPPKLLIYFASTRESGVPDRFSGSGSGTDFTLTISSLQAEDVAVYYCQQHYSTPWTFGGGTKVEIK
notes: IgG4 S241P, kappa

Kd: 105 nM
fold better than Parent (KD): 1.51 fold
B17: He13/L16 (antibody, IgG4, V domains shown)
VH: B3 VH
VL: B3 VL with Y102F
notes: IgG4 S241P, kappa

Kd: 102 nM
fold better than Parent (KD): 1.56 fold
B18: He14/L2 (antibody, IgG4, V domains shown)
VH: B3 VH with L107V
VL: B3 VL with Y100F
notes: IgG4 S241P, kappa

Kd: 105 nM
fold better than Parent (KD): 1.51 fold
B20: He13/L6 (antibody, IgG4, V domains shown)
VH: B3 VH
VL: B3 VL with Y100F, P101S, Y102F
notes: IgG4 S241P, kappa

Kd: 107 nM
fold better than Parent (KD): 1.49 fold
B24: He14/L3 (antibody, IgG4, V domains shown)
VH: B3 VH with L107V
VL: B3 VL with Y98F, Y100F, Y102F
notes: IgG4 S241P, kappa

The next lines start with the binder.

B1: He6/L17 (antibody, IgG4, V domains shown)
VH: B3 VH with T97A, G99A, L100R, Y101T, S105A, L107F
VL: B3 VL
notes: IgG4 S241P, kappa
Kd: 91 nM
fold better than Parent (KD): 1.75 fold

B2: He13/L2 (antibody, IgG4, V domains shown)
VH: B3 VH
VL: B3 VL with Y100F
notes: IgG4 S241P, kappa
Kd: 98 nM
fold better than Parent (KD): 1.62 fold

B4: He6/L19 (antibody, IgG4, V domains shown)
VH: B3 VH with T97A, G99A, L100R, Y101T, S105A, L107F
VL: B3 VL with Y98I, P99Y, Y100P, P101N, Y102F
notes: IgG4 S241P, kappa
Kd: 237 nM
fold better than Parent (KD): 0.67 fold

B5: He9/L18 (antibody, IgG4, V domains shown)
VH: B3 VH with T97A, G99A, L100M, S105A, L107F
VL: B3 VL with Y98F, Y102F
notes: IgG4 S241P, kappa
Kd: 36 nM
fold better than Parent (KD): 4.4 fold

B6: He13/L3 (antibody, IgG4, V domains shown)
VH: B3 VH
VL: B3 VL with Y98F, Y100F, Y102F
notes: IgG4 S241P, kappa
Kd: 108 nM
fold better than Parent (KD): 1.47 fold

B8: He9/Parent VL (antibody, IgG4, V domains shown)
VH: B3 VH with T97A, G99A, L100M, S105A, L107F
VL: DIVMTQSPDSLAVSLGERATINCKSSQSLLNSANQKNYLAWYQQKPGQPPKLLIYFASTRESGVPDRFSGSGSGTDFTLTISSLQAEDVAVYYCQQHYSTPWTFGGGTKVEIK
notes: IgG4 S241P, kappa
Kd: 262 nM
fold better than Parent (KD): 0.61 fold

B9: He9/L20 (antibody, IgG4, V domains shown)
VH: B3 VH with T97A, G99A, L100M, S105A, L107F
VL: B3 VL with Y98F, Y102L
notes: IgG4 S241P, kappa
Kd: 44 nM
fold better than Parent (KD): 3.61 fold

B10: He13/L4#2 (antibody, IgG4, V domains shown)
VH: B3 VH
VL: B3 VL
notes: IgG4 S241P, kappa
Kd: 289 nM
fold better than Parent (KD): 1.91 fold

B11: He6/L18 (antibody, IgG4, V domains shown)
VH: B3 VH with T97A, G99A, L100R, Y101T, S105A, L107F
VL: B3 VL with Y98F, Y102F
notes: IgG4 S241P, kappa
Kd: 83 nM
fold better than Parent (KD): 1.92 fold

B13: He13/L5 (antibody, IgG4, V domains shown)
VH: B3 VH
VL: B3 VL with Y100F, P101A, Y102F
notes: IgG4 S241P, kappa
Kd: 95 nM
fold better than Parent (KD): 1.68 fold

B15: He9/L4 #1 (antibody, IgG4, V domains shown)
VH: B3 VH with T97A, G99A, L100M, S105A, L107F
VL: B3 VL with Y98F, P101Y
notes: IgG4 S241P, kappa
Kd: 78 nM
fold better than Parent (KD): 2.05 fold

B19: He9/L2 (antibody, IgG4, V domains shown)
VH: B3 VH with T97A, G99A, L100M, S105A, L107F
VL: B3 VL with Y100F
notes: IgG4 S241P, kappa
Kd: 70 nM
fold better than Parent (KD): 2.27 fold

B21: He6/Parent VL (antibody, IgG4, V domains shown)
VH: B3 VH with T97A, G99A, L100R, Y101T, S105A, L107F
VL: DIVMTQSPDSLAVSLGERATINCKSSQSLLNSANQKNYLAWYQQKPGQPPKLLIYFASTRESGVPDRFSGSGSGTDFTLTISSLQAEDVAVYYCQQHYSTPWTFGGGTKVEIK
notes: IgG4 S241P, kappa
Kd: 125 nM
fold better than Parent (KD): 1.27 fold

B22: He9/L16 (antibody, IgG4, V domains shown)
VH: B3 VH with T97A, G99A, L100M, S105A, L107F
VL: B3 VL with Y102F
notes: IgG4 S241P, kappa
Kd: 32 nM
fold better than Parent (KD): 5.05 fold

B23: He13/L1 (antibody, IgG4, V domains shown)
VH: B3 VH
VL: B3 VL with Y100F, P101Y
notes: IgG4 S241P, kappa
Kd: 126 nM
fold better than Parent (KD): 1.26 fold

B25: He9/L5 (antibody, IgG4, V domains shown)
VH: B3 VH with T97A, G99A, L100M, S105A, L107F
VL: B3 VL with Y100F, P101A, Y102F
notes: IgG4 S241P, kappa
Kd: 44 nM
fold better than Parent (KD): 3.61 fold

B26: He6/L20 (antibody, IgG4, V domains shown)
VH: B3 VH with T97A, G99A, L100R, Y101T, S105A, L107F
VL: B3 VL with Y98F, Y102L
notes: IgG4 S241P, kappa
Kd: 89 nM
fold better than Parent (KD): 1.79 fold

B27: He9/L19 (antibody, IgG4, V domains shown)
VH: B3 VH with T97A, G99A, L100M, S105A, L107F
VL: B3 VL with Y98I, P99Y, Y100P, P101N, Y102F
notes: IgG4 S241P, kappa
Kd: 193 nM
fold better than Parent (KD): 0.82 fold

B28: He13/L4 #1 (antibody, IgG4, V domains shown)
VH: B3 VH
VL: B3 VL with Y98F, P101Y
notes: IgG4 S241P, kappa
Kd: 115 nM
fold better than Parent (KD): 1.38 fold

B29: He9/L1 (antibody, IgG4, V domains shown)
VH: B3 VH with T97A, G99A, L100M, S105A, L107F
VL: B3 VL with Y100F, P101Y
notes: IgG4 S241P, kappa
Kd: 69 nM
fold better than Parent (KD): 2.32 fold
